Holding throughout (test): ITC; ITC: 150 mM NaCl, 20 mM HEPES pH 7.5, 25 C, 400 uM protein into 20 uM DNA; EMSA: 150 mM NaCl, 20 mM Tris-HCl pH 8.0, on ice 1 h, 0.1 uM DNA, 6% native PAGE 0.5x TBE
What all share (conditions): protein: recombinant; tags: 6xHis-SUMO removed by Ulp1; blunt

One data set deals with T1, WER L59A (Arabidopsis, UniProt Q9SEI0 12-130, L59A).
T1 sequence: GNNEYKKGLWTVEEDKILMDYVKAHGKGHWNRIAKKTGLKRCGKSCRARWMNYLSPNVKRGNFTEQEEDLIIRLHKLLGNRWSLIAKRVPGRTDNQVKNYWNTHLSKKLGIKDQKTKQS

Data set [1] deals with T2, WER L59E (Arabidopsis, UniProt Q9SEI0 12-130, L59E).
T2 sequence: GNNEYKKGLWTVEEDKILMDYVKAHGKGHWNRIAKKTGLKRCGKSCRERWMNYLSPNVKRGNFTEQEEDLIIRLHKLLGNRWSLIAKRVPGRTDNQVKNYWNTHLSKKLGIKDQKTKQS

A further data set addresses T3, WER K55A (Arabidopsis, UniProt Q9SEI0 12-130, K55A).
T3 sequence: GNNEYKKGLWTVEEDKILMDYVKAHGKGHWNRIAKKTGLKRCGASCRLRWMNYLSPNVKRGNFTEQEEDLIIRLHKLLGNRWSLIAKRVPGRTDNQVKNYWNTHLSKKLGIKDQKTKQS

The target in data set [2] is T2, WER L59E. This is another data set of the same source.

A value given as a limit tells only on which side of the number the result lay.

By Kd is commonly meant a measure of binding affinity in units of concentration.

B1: G12:C11* (dsDNA)
DNA 1: AAATTCTCCAAGCGCATTTTC
DNA 2: GAAAATGCGCTTGGAGAATTT
On to B1, for which, in the data set with WER L59A, the binding result was “binds”.

B2: A12:T11* (dsDNA)
DNA 1: AAATTCTCCAAACGCATTTTC
DNA 2: GAAAATGCGTTTGGAGAATTT
As to B2, in the data set with WER L59A, the binding result is recorded as “binds”.

B3: 5mC12 DNA (AA5mC) (dsDNA)
DNA 1: AAATTCTCCAACCGCATTTTC
DNA 2: GAAAATGCGGTTGGAGAATTT
modifications: 5mC at C12 of strand 1
Take B3: in the data set with WER L59A, the binding result is “binds”. For the same molecule, the binding signal in the data set with WER L59E [1] is ~4 fold decrease in affinity vs N1.

B4: T12:A11* (dsDNA)
DNA 1: AAATTCTCCAATCGCATTTTC
DNA 2: GAAAATGCGATTGGAGAATTT
For B4, in the data set with WER L59A, the binding result was “binds”.

B5: GL2 promoter WER target DNA (dsDNA)
DNA 1: AAATTCTCCAACCGCATTTTC
DNA 2: GAAAATGCGGTTGGAGAATTT
Take B5: in the data set with WER K55A, the binding signal is > 40 fold decrease in affinity vs WT. Moreover, the Kd in the data set with WER L59A came to 47 nM; with WER L59E [2], 47.8 nM.

For the origin of these results see PMC7145699, “Structural insights into target DNA recognition by R2R3-MYB transcription factors”.
